The assay has as its target SARS-CoV-2 spike trimer (soluble S-trimer) (SARS-CoV-2 Wuhan-Hu-1 (NC_045512), UniProt P0DTC2). Briefly: live-cell binding assay.

B1: S2L20-CVR (scFv, V domains shown)
VH: EVQLVESGGGVVQPGGSLRLSCAASGFTFNSYGMHWVRQAPGKGLEWVAFIRYDGGNKYYADSVKGRFTISRDNSKNTLYLQMKSLRAEDTAVYYCANLKDSRYSGSYYDYWGQGTLVTVS
VL: not shown
For B1, the binding result is recorded as “binds”.

The values are drawn from paper doi:10.1101/2024.03.03.583237 (bioRxiv, 2024).
